Reference: patent US20050112108, “Transcriptional regulator of genes involved in the control of cell growth or cell proliferation. Use of said regulator as a therapeutic or diagnostic agent” (published 2005)

T1: GAAP-1 (IPCS-BF1, 2.5 kb PRDII-BF1 splice product) (Homo sapiens, UniProt P15822 SEQ:1-693)
T1 chain: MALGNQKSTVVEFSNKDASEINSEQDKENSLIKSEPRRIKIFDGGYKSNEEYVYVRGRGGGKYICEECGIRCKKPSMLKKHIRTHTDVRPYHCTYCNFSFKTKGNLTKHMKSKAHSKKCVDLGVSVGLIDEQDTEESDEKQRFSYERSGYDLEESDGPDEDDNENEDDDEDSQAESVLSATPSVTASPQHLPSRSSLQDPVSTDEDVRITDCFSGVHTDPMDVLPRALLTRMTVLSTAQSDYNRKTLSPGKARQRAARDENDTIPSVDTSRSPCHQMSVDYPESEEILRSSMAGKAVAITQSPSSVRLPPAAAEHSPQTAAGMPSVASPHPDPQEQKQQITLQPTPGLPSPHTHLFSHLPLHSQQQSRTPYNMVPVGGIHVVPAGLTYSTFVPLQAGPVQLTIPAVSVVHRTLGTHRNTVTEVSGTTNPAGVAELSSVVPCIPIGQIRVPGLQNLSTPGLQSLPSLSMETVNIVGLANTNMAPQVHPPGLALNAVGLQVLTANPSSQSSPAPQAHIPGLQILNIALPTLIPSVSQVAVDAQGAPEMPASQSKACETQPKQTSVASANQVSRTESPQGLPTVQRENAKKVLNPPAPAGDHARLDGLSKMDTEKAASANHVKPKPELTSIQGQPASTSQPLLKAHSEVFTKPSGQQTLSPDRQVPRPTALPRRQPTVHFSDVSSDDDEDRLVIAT


Key:
[1] = target: T1, GAAP-1 (IPCS-BF1, 2.5 kb PRDII-BF1 …); assay: EMSA; two complexes (possible homodimer); considerably stronger than IPCS-p53; conditions: tags: none (TNT reticulocyte lysate, pcDNA3.1); label: 32P
Protocol: The protein-DNA binding reactions were carried out using 5 μg of nuclear extract and 0.1 fmol of probe in 20 μl of binding buffer (20 mM Tris-HCl, 25 mM KCl, 1 mM DTT, 1 mM EDTA, 0.1% Nonidet P40, 4% glycerol, 1 mg/ml bovine serum alcbumin, μg/ml poly(dI-dC)) for 20 min at 4° C. In vitro translation products were generated by 50 μl of TNT coupled reticulocyte Lysate System (Promega) and 1 μg of the appropriate plasmid. 5 μl of the in vitro product was used instead of the nuclear extract when required. The reaction mixture was then electrophoresed on a 6% non denaturing acrylamide gel. Competition experiments were carried out using a 50-fold molar excess of the unlabelled probe. The following oligonucleotides (and their complementary strands) were used in these studies:
PRDII-BF1 was previously described as a protein binding to an NF-κB site whose ability to recognise the DNA is determined by two pairs of zinc fingers, one of them present in GAAP-1 (Fan 90, Gaynor, Baldwin). […] To confirm the binding specificity of the cloned GAAP-1 for the IPCS target sequence, in vitro translated GAAP-1 was incubated with labelled IPCS or NF-κB oligonucleotide and analysed by Electro Mobility Shift Assay (EMSA). […] Furthermore, the affinity of in vitro translated GAAP-1 was considerably stronger for the NF-κB probe than for the IPCS-P53 probe. […]

[2] = target: T1, GAAP-1 (IPCS-BF1, 2.5 kb PRDII-BF1 …); assay: EMSA; one complex; competed by 50-fold excess; weaker than NF-kB probe in vitro; conditions: tags: none (TNT reticulocyte lysate, pcDNA3.1); label: 32P
Protocol: FIG. 5a)—EMSA using the IPCS-p53 probe and in vitro translated GAAP-1 (lane1), GAAP-1 mtZ1 (lane 3), GAAP-1 mt Z2 (lane 5), or reticulocyte lysat with the empty expression vector (lane 7). Even lanes: 50 fold molar excess of IPCS-p53 oligonucleotide was added to the reaction of the previous lane. The arrow indicates the specific complex.
Synthetic double stranded oligonucleotide probes were labelled with α-³²P dCTP (Amersham Corp.) by “filling-in” with Sequenase, and then purified on Sephadex G-50. The protein-DNA binding reactions were carried out using 5 μg of nuclear extract and 0.1 fmol of probe in 20 μl of binding buffer (20 mM Tris-HCl, 25 mM KCl, 1 mM DTT, 1 mM EDTA, 0.1% Nonidet P40, 4% glycerol, 1 mg/ml bovine serum alcbumin, μg/ml poly(dI-dC)) for 20 min at 4° C. In vitro translation products were generated by 50 μl of TNT coupled reticulocyte Lysate System (Promega) and 1 μg of the appropriate plasmid. […]
PRDII-BF1 was previously described as a protein binding to an NF-κB site whose ability to recognise the DNA is determined by two pairs of zinc fingers, one of them present in GAAP-1 (Fan 90, Gaynor, Baldwin). […] To confirm the binding specificity of the cloned GAAP-1 for the IPCS target sequence, in vitro translated GAAP-1 was incubated with labelled IPCS or NF-κB oligonucleotide and analysed by Electro Mobility Shift Assay (EMSA). […]

Binder | binding result [1] | binding result [2]
NF-kB-MHC (dsDNA) DNA 1: GATCCTCTGGGGATTCCCCATGGA DNA 2: TCCATGGGGAATCCCCAGAGGATC | binds | 
IPCS-p53 EMSA probe (dsDNA) DNA 1: AATGCAGGATTCCTCCAAAATGATTTCCAC DNA 2: GTGGAAATCATTTTGGAGGAATCCTGCATT |  | binds
